41 sequences from the nanobody polyreactivity screen of Harvey et al. (2022) can be followed below.

The nature of the data set: yeast display, Sf9 membrane polyspecificity reagent, FACS + sequencing; frameworks hold sequencing errors. In outline:
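Nanobodies came from a synthetic yeast display library in Saccharomyces cerevisiae BJ5465, induced with galactose for 36–48 hours and stained for 1 hour at 4 °C with 10% biotinylated, detergent-solubilized Sf9 membrane reagent. Cells were enriched on streptavidin microbeads and then FACS-sorted, with low and high (top ~1%) gates set on anti-HA fluorescence for expression and streptavidin fluorescence for reagent binding. Each polyreactivity label reflects the gate a clone came from. Genes were amplified by colony PCR, sequenced by MiSeq 2 × 250 and filtered by CDR length.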
As to “QVQLVESGGGLVQAGGSLRLSCAASGSTFSFYAMGWYRQAPGKERELVAAIRAGTRTYYADSVKGRFTISRDNAKNTVYLQMNSLKPEDTAVYYCAATRRRYPYYYWGQGTQVTVSS”, the “polyreactivity (PSR sort gate)” value is listed as “high polyreactivity”.
As for “QVQLVESGGGLVQAGGSLRLSCAASGSTFSGYAMGWYRQAPGKEREFVATISISGGSTYYADSVKGRFTISRDNAKNTVYLQMNSLKPEDTAVYYCNADYYFSWGSIVDYWGQGTQVTVSS”, the “polyreactivity (PSR sort gate)” value was “low polyreactivity”.
As to “QVQLVESGGGLVQAGGSLRLSCAASGSTFSGYAMGWYRQAPGKERELVAAISYSGGGTYYEDSVKGRFTISRDNAKNTVYLQMNSLKPEDTAVYYCATLGSLRYYWPGYDYWGQGTQVTVSS”, the “polyreactivity (PSR sort gate)” value is recorded as “low polyreactivity”.
Regarding “QVQLVESGGGLVQAGGSLRLSCAASGSTFSGYAMGWYSQAPGKERELVAAISWSGGRTYYADSVNGRFTISRDNAKNTVYLQMNSLKPEDTAVYYCDAVRKSAYEYWGQGTQVTVSS”, the “polyreactivity (PSR sort gate)” value is “high polyreactivity”.
For “QVQLVESGGGLVQAGGSLRLSCAASGSTFSIYAMGWYRQAPGKERELVAAITSDGSTYYADSVKGRFTISRDNAKNTVYLQMNSLKPEDTAVYYCAADWWYGWVSYEYWGQGTQVTVSS”, the “polyreactivity (PSR sort gate)” value is listed as “high polyreactivity”.
For “QVQLVESGGGLVQAGGSLRLSCAASGSTFSKNAMGWYRPAPGKERELVAAIRSRGGSTYYADSVKGRFTISRDNAKNTVYLQMNSLKPEDTAVYYCAAQYFWYVYSYDYWGQGTQVTVSS”, the “polyreactivity (PSR sort gate)” value was “high polyreactivity”.
Take “QVQLVESGGGLVQAGGSLRLSCAASGSTFSKYAMGWYRQAPGKERELEAAITRTGGRTYYADSVKGRFTISRDNANNTVYLQMNSLKPEDTAVYYCAASATFWGQGTQVTVSS”: the “polyreactivity (PSR sort gate)” value is recorded as “high polyreactivity”.
As for “QVQLVESGGGLVQAGGSLRLSCAASGSTFSKYAMGWYRQAPGKERELVAAINYGGTSTYYADSVKGRFTISRDNAKNTVYLQMNSLKPEDTAVYYCAVIYRRLYTGGQNPYDYWGQGTQVTVSS”, the “polyreactivity (PSR sort gate)” value is given as “high polyreactivity”.
As to “QVQLVESGGGLVQAGGSLRLSCAASGSTFSKYAMGWYRQAPGKERELVAAISRSGGNTYYADSVKGRFTISRDNAKNTVYLQMNSLKPEDTAVYYCATTLYSYSTGRYRLDYWGQGTQVTVSS”, the “polyreactivity (PSR sort gate)” value is “high polyreactivity”.
For “QVQLVESGGGLVQAGGSLRLSCAASGSTFSLNAMGWYRQAPGKERELVAAISNVGDTYYADSVKGRFTISRDNAKNTVYLQMNSLKPEDTAVYYCAADGASYYYEYDYWGQGTQVTVSS”, the “polyreactivity (PSR sort gate)” value is given as “low polyreactivity”.
“QVQLVESGGGLVQAGGSLRLSCAASGSTFSLYARGWYRQAPGKETELVAAITRGGNTYYADSVKGRFTISRDNAKNTVYLQMNSLKPEDTAVYYCNAYYYQFRGIRVSGGYWGQGTQVTVSS”: the “polyreactivity (PSR sort gate)” value is “high polyreactivity”.
For “QVQLVESGGGLVQAGGSLRLSCAASGSTFSLYDMGWYRQAPGKERELVAAISYSGGSTYYADSVKGRFTISRDNAKNTVYLQMNSLKPEDTAVFYCATRLFYPRFFYWGQGTQVTVSS”, the “polyreactivity (PSR sort gate)” value was “high polyreactivity”.
In the case of “QVQLVESGGGLVQAGGSLRLSCAASGSTFSNNAMGWYRQAPGNERELVAAISRSGGSTYYADSVKGRFTISRDNAKNTVYLQMNSLKPEDTAVYYCAVSPRYYRNGGAHLQYDYWGQGTHVTVSS”, the “polyreactivity (PSR sort gate)” value is reported as “high polyreactivity”.
“QVQLVESGGGLVQAGGSLRLSCAASGSTFSNNTMGWYRQAPGKERELVAAISWRGTRTYYADSVKGRFTISRDNAKNTVYLQMNSLKPEDTAVYYCNKLPTYPDYGYDSWGQGTQVTVSS”: the “polyreactivity (PSR sort gate)” value is “high polyreactivity”.
Turning to “QVQLVESGGGLVQAGGSLRLSCAASGSTFSPNAMGWYRQAPGKERELVAAISGSGGSTYYADSVKGRFTISRDNAKNTVYLQMNSLKPEDTAVYYCAADSYYDGDYWGQGTQVTVSS”, the “polyreactivity (PSR sort gate)” value is “low polyreactivity”.
Take “QVQLVESGGGLVQAGGSLRLSCAASGSTFSPNAMGWYRQAPGKERELVAAITWSGGSNTYADSVKGRFTISRDNAKNTVYLQMNSLKPEDTAVYYCAADTKYDNDYWGQGTQVTVSS”: the “polyreactivity (PSR sort gate)” value is “low polyreactivity”.
Consider “QVQLVESGGGLVQAGGSLRLSCAASGSTFSPYAMGWYRQAPGKERELVAAITRSGSSTYYADSVKGRFTISRDNAKNTVYLQMNSLKPEDTAVYYCAADTGVTRSYRYTSWRIKYESWGQGTQVTVSS”, for which the “polyreactivity (PSR sort gate)” value is listed as “low polyreactivity”.
Consider “QVQLVESGGGLVQAGGSLRLSCAASGSTFSRNAMGWYRQAPGKERELVAAITQSGGRTYYADSVKGRFTISRDNAKNTVYLQMNSLKPEDTAVYYCNARGRRSGYISGYDYWGQGTQVTVSS”, for which the “polyreactivity (PSR sort gate)” value was “high polyreactivity”.
Under “QVQLVESGGGLVQAGGSLRLSCAASGSTFSRNAMGWYRQAPGKERELVAAITSGGRTYYADSVKGRFTISRDNAKNTVYLQMNSLKPEDTAVYYCAAVHRYPIHYDYWGQGTQVTVSS” stands “low polyreactivity”.
As for “QVQLVESGGGLVQAGGSLRLSCAASGSTFSRYAMGWYRPAPGKERELVAAISGTDDSTYYADSVKGRFTISRDNAKNTVYLQMNSLKPEDTAVYYCAARLVESRYGFGYEYYYWGQGTQVTVSS”, the “polyreactivity (PSR sort gate)” value is “low polyreactivity”.
Turning to “QVQLVESGGGLVQAGGSLRLSCAASGSTFSRYAMGWYRPAPGKERELVATITRGGSTNYADSVKGRFTISRDNAQNTVYLQMTSLKPEDTAVYYCNKTARYVDGRGDYWGQGTQVTVSS”, the “polyreactivity (PSR sort gate)” value was “low polyreactivity”.
With “QVQLVESGGGLVQAGGSLRLSCAASGSTFSRYAMGWYRQAPGKEREFVAAISRRAGGTYYADSVKGRFTISRDNAKNTVYLQMNSVKPEDTAVYYCAKVLPRDYIGRATYDYWGQGTQVTVSS”, the “polyreactivity (PSR sort gate)” value was “high polyreactivity”.
In the case of “QVQLVESGGGLVQAGGSLRLSCAASGSTFSRYAMGWYRQAPGKERELVAAISWSGASTYYADSVKGRFTISRDNAKNTVYLQMNRLKPEDTSVYYCAKVARQNWFRYYYDYWGQGTQVTVSS”, the “polyreactivity (PSR sort gate)” value was “high polyreactivity”.
As to “QVQLVESGGGLVQAGGSLRLSCAASGSTFSRYTMGWYRQAPGKEWELVAAISFRASSTYYADSVKGRFTISRDNAKNTVYLQMNSLKPEDTAVYYCAARNVFRYRWPIEYDYWGQGTQVTVSS”, the “polyreactivity (PSR sort gate)” value is listed as “low polyreactivity”.
On to “QVQLVESGGGLVQAGGSLRLSCAASGSTFSSNAMGWYRQAPGKERELVAAIDRGGSTYYADSVKGRFTISRDNAKNTVYLQMNSLKPEDNAVYYCNAERETYDYWGQGTQVTVSS”, for which the “polyreactivity (PSR sort gate)” value is on record as “low polyreactivity”.
In the case of “QVQLVESGGGLVQAGGSLRLSCAASGSTFSSNAMGWYRQAPGKERELVAAINRTGNTYYADSVKGRFTISRDNEKNTVYLQMNSLKPEDTAVYYCNTDLNLYRGGGYWGQGTQVTVSS” it was “low polyreactivity”; in that of “QVQLVESGGGLVQAGGSLRLSCAASGSTFSSYAMGWYRQAPGKERELVAAINWSRTRTYYADSVKGRFTISRDNAKNTVYFQMNSVIPEDTAVYYCAAPGFGETADYDYWGHGTQVTVSS”, “low polyreactivity”.
In the case of “QVQLVESGGGLVQAGGSLRLSCAASGSTFSSYGMGWYRQAPGKERELVAAITSSGGSTYYADSVKGRFTISRDNAKNTVYLQMNSLKPEDTAVYYCAASDVIFWLYYYWGQGTQVTVSS” it was “low polyreactivity”.
For the sequence “QVQLVESGGGLVQAGGSLRLSCAASGSTFSSYVMGWYRQAPGKERELVAAISSIGGSTYYADSVKGRFTISRDNAKNTVYLQMNSLKPEDTAVYYCNADYVIYFGLYEYWGQGTQVTVSS”, the “polyreactivity (PSR sort gate)” value is given as “low polyreactivity”.
Under “QVQLVESGGGLVQAGGSLRLSCAASGSTFSTNVMGWYRQAPGKERELVAAISTIGGSTYADSVKGRFTISRDNAKNTVYLQMNSLKPEDTAVYYCAAVFRVRRKTYGYWGQGTQVTVSS” stands “high polyreactivity”.
In the case of “QVQLVESGGGLVQAGGSLRLSCAASGSTFSTYAMGWYRQAPGKERELVAAISRTGGSTYYADSVKGRFTISRDNAKNTVYLQMNSLKPEDTAVYYCAADEDWEYWAPWYDYWGQGTQVTVSS” it was “low polyreactivity”; in that of “QVQLVESGGGLVQAGGSLRLSCAASGSTFSTYAMGWYRQAPGKERELVARITRSDTGTYYADSVKGRFTISRDNAKNTGYLQMNSLKPEDTAVYYCAADGWYDDSGWYYGYDYWGQGTQVTVSS”, “low polyreactivity”.
Turning to “QVQLVESGGGLVQAGGSLRLSCAASGSTFSTYVMGWYRQAPGKERELVATISYSSDSTYYADSVKVRFTISRDNAKNTVYLQMNSLKPEDSAVYYCNAARFTRRDYWGQGTQVTVSS”, the “polyreactivity (PSR sort gate)” value is given as “high polyreactivity”.
Under “QVQLVESGGGLVQAGGSLRLSCAASGSTFSVNAMGWYRQAPGKERELVAAITRSGGSTYYEDSVKGRFTISRENAKNTVYLQMNSLKPEDTAVYYCAAVIFPLGEYWGQGTQVTVSS” stands “low polyreactivity”.
“QVQLVESGGGLVQAGGSLRLSCAASGSTFSVYAMGWYRQAPGKERELVAAITSGGSTNYADSVKGRFTISRDNAKNTVYLQMNSLKPEDTAVYYCAAYLYDTIYTSYREYDYWGQGTQVTVSS”: the “polyreactivity (PSR sort gate)” value was “low polyreactivity”.
With “QVQLVESGGGLVQAGGSLRLSCAASGSTFSVYAMGWYRQAPGTERELVAAITWSGGSTYYADSVKGRFTISRDNAKNTDYLQMNSLKPEDTAVYDCNAEGYYVWGITTYWLHQYGYWGQGTQVTVSS”, the “polyreactivity (PSR sort gate)” value was “low polyreactivity”.
Regarding “QVQLVESGGGLVQAGGSLRLSCAASGSTFSVYGMGWYRQAPGKERELVAAITRGSRTYYADSVKGRFTISRDNAKNTVYLQMNSLKPEDTAVYYSAAKWWWRSYWGQGTQVTVSS”, the “polyreactivity (PSR sort gate)” value is listed as “high polyreactivity”.
For “QVQLVESGGGLVQAGGSLRLSCAASGSTFSVYTMGWYRQAPGKERELVAAISRSGGRTYYADSVKGRFTISRDNAKNTVYLQMNSVKPDDTAVYYCATGYYGTYDYWGQGTQVTVSS”, the “polyreactivity (PSR sort gate)” value is recorded as “high polyreactivity”.
Under “QVQLVESGGGLVQAGGSLRLSCAASGSTFSWYAMGWYRPAPGKEMELVAAISSGGSTNYADSVKGRFTISRDNAKNTVYLQMNSLKPEDTAVFYCAAVWSRFLISYSTGWWFEYWGQGTQVTVSS” stands “low polyreactivity”; under “QVQLVESGGGLVQAGGSLRLSCAASGSTFSWYAMGWYRQAPGKERELVAAITSGGSTQYADSVKGRFTISRDNAKNTVYLQMNSLKPEDTAVYYCATRRYKWGVRYDYWGQGTQVTVSS”, “high polyreactivity”; under “QVQLVESGGGLVQAGGSLRLSCAASGSTFSYNAKGWYRQAPGKERELANYADSVKGRFTISRDKAKNTVYLQMNSLKPEDTAVYYCAAVGFSYYVIRFDYWGQGTQVTVSS”, “low polyreactivity”.
